Columns and labels:
[1] = molecular target: α-L-rhamnosidase from Klebsiella oxytoca (KoRha) (Klebsiella oxytoca KCTC 1686); test: dynamic light scattering; purified KoRha in solution, DynaPro-Titan instrument, 20°C; hydrodynamic radius 4.8 nm
purified protein = substrate: C[C@@H]1O[C@@H](Oc2ccc([N+](=O)[O-])cc2)[C@H](O)[C@H](O)[C@H]1O; test: purified protein; assay type: biochemical, Klebsiella oxytoca; settings: 20 mM MES pH 5.0, 10% DMSO in substrate solution

α-L-rhamnosidase from Klebsiella oxytoca (KoRha) (enzyme)
stoichiometry N [1]: 2

B1: KoRha (Klebsiella oxytoca) (protein)
chain: MSQAIQHNSQVMMTRHPNFLRTAEALRPALSRQAHPPIAVVEAHADAAALFGWRAEPVSTLAAFYQRELSSGDSVIIDFGSHYVGYLHFLCQSAGSPPDAPAHLQLTFGETLSEVCEPFSDYQGWLSSSWLQQQDLWLDVLPAEIDLPRRYCFRYLKVEVKAVSRKFRLQFTQIEVNAVTSASGACPAATTSDPQLRAIDNVAVLTLQNCMQEVFEDGPKRDRRLWLGDLRLQALVNDVTFARHDLVRRCLYLFAGHTREDGMVSANVFVQPDVIADDTFLFDYSLFFVDVLYNYLQSAEDMATARELWPTARRQVELALTRCDASGVVRDSDDWWVFIDWQASLNKQAAAQGVLIYCLQRAIWLAERFEPELAVSYRQRLQQLKSAALDALWDPQQGFYVSGARRQVSWASQIWLVLAEVGTPQQRREIMRNLEKNPPAVAMNTPYLRHHYIAALLQCGLRDEAIAQIKAYWGAMVDYGADTFWEIFDPAHPDFSPYGSKLINSYCHAWSCTPAWFIRQYGL
notes: synthetic codon-optimised gene in pET15b, E. coli BL21(DE3); residues 11-523 modelled
Km (purified protein): 210 ± 20 µM
kcat (purified protein): 0.98 s⁻¹

— PMC4690510, “Crystal structure of a novel two domain GH78 family α-rhamnosidase from Klebsiella oxytoca with rhamnose bound” (Proteins, 2015)
